Data from patent US20260042834A1 (HBM ALPHA THERAPEUTICS, published 2026).
Like-named read-outs stand apart in the source and are kept apart here.

T1: corticotropin-releasing hormone (CRH) peptide (human and mouse (same sequence), not fully specified)
T1 peptide: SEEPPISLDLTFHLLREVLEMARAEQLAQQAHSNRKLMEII

T2: corticotropin-releasing hormone (CRH) peptide (human and mouse, not fully specified)
T2 peptide: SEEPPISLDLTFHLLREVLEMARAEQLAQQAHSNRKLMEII


Columns and labels:
Assay in all cases: cell-based or functional assay
[1] = target: T1, corticotropin-releasing hormone (CRH) …
[2] = target: T1, corticotropin-releasing hormone (CRH) …
[3] = target: T2, corticotropin-releasing hormone (CRH) …

Binder | hCRHR1 Luciferase Reporter Assay IC50 [2] [nM] | further results
PR302309-1 (antibody, human IgG1, kappa, V domains shown) VH: QIQLVQSGPELKKPGETVKISCKASGYTFTNYGMNWVKQAPGKVLKWMGWINTYTGEPIYTDDFKGRFAFSLETSASTAYLQINNLKNEDTATYFCSRSTMITTGGVFAYWGQGTLVTVSA VL: DVVMTQSPLSLPVTLGQPASISCRSSQTIVHSDGNTYLEWFQQRPGQSPRRLIYKVSNRFSGVPDRFSGSGSGTDFTLKISRVEAEDVGVYYCFQGSHVPWTFGGGTKVEIKR | – | hCRHR1 Luciferase Reporter Assay IC50 [1]: 4.42 nM
PR302334-11 (antibody, human IgG1, kappa, V domains shown) VH: EVQLVESGGGLVQPGGSLRLSCAASGFTFSTYAMSWVRQAPGKGLEWVASIRSGGTTYYPDSVKGRFTISRDNSKNTLYLQMNSLRAEDTAVYYCTRGIDWGQGTTVTVSS VL: DIQMTQSSLSASVSLGDRVTITCKASQSVNNDVAWYQQKPGKAPRLLIYYASNRYTGVPSRFSGSGSGTDFTFTISSLQPEDIATYYCQQDYSSWTFGGGTKVEIKR | 1 | –
PR302334-12 (antibody, human IgG1, kappa, V domains shown) VH: EVQLVESGGGLVQPGGSLRLSCAASGFTFSTYAMSWVRQAPGKGLEWVASIRSGGTTYYPDSVKGRFTISRDNSKNTLYLQMNSLRAEDTAVYYCTRGIDWGQGTTVTVSS VL: DIQMTQSSLSASVSLGDRVTITCKASQSVNNDVAWYQQKPGKAPRLLIYYASNRYTGVPSRFSGSGSGTDFTFTISSLQPEDLATYFCQQDYSSWTFGGGTKVEIKR | 0.986 | –
PR302334-27 (antibody, human IgG1, kappa, V domains shown) VH: EVQLVESGGGLVQPGGSLRLSCAASGFTFSTYAMSWVRQAPGKGLEWVASIRSGGTTYYPDSVKGRFTISRDNSKNSLYLQMNSLRAEDTAVYYCTRGIDWGQGTTVTVSS VL: DIQMTQSSLSASVSLGDRVTITCKASQSVNNDVAWYQQKPGKAPRLLIYYASNRYTGVPSRFSGSGSGTDFTFTISSLQPEDLATYFCQQDYSSWTFGGGTKVEIKR | 1.36 | hCRHR1-Luc 0.5 nM CRH IC50 [2]: 1.36 nM; mCrhr1 Luciferase Reporter Assay IC50 [2]: 2.27 nM
PR302334-17 (antibody, human IgG1, kappa, V domains shown) VH: EVQLVESGGGLVQPGGSLRLSCAASGFTFSTYAMSWVRQAPGKGLEWVSSIRSGGTTYYPDSVKGRFTISRDNSKNSLYLQMNSLRAEDTAVYYCARGIDWGQGTTVTVSS VL: NIVMTQTPKFLLVSAGDRITITCKASQSVNNDVAWYQQKPGQSPKLLIYYASNRYTGVPDRFTGSGYGTDFTFTISTVQAEDLAVYFCQQDYSSWTFGGGTNLEIKR | 12.2 | –
PR302334-8 (antibody, human IgG1, kappa, V domains shown) VH: EVQLVESGGGLVQPGGSLRLSCAASGFTFSTYAMSWVRQAPGKGLEWVASIRSGGTTYYPDSVKGRFTISRDNSKNTLYLQMNSLRAEDTAVYYCTRGIDWGQGTTVTVSS VL: EIVMTQSPATLSVSPGERATLSCKASQSVNNDVAWYQQKPGQAPRLLIYYASNRYTGIPARFSGSGSGTEFTLTISSLQSEDLAVYFCQQDYSSWTFGGGTKVEIKR | 0.816 | mCrhr1 Luciferase Reporter Assay IC50 [2]: 2.61 nM
PR302334-15 (antibody, human IgG1, kappa, V domains shown) VH: EVQLVESGGGLVKPGGSLRLSCAASGFTFSTYAMSWVRQAPGKGLEWVSSIRSGGTTYYPDSVKGRFTISRDNAKNSLYLQMNSLRAEDTAVYYCARGIDWGQGTTVTVSS VL: NIVMTQTPKFLLVSAGDRITITCKASQSVNNDVAWYQQKPGQSPKLLIYYASNRYTGVPDRFTGSGYGTDFTFTISTVQAEDLAVYFCQQDYSSWTFGGGTNLEIKR | 5.12 | –
PR302334-16 (antibody, human IgG1, kappa, V domains shown) VH: EVQLVESGGGLVKPGGSLRLSCAASGFTFSTYAMSWVRQAPGKGLEWVASIRSGGTTYYPDSVKGRFTISRDNAKNSLYLQMNSLRAEDTAVYYCTRGIDWGQGTTVTVSS VL: NIVMTQTPKFLLVSAGDRITITCKASQSVNNDVAWYQQKPGQSPKLLIYYASNRYTGVPDRFTGSGYGTDFTFTISTVQAEDLAVYFCQQDYSSWTFGGGTNLEIKR | 0.339 | –
PR302334-5 (antibody, human IgG1, kappa, V domains shown) VH: EVKLVESGGGLVKPGGSLKLSCAASGFTFSTYAMSWVRQTPEKRLEWVASIRSGGTTYYPDSVKGRFTISRDNARNILYLQMSSLRSEDTAIYYCTRGIDWGQGTLVTVSA VL: DIQMTQSSLSASVSLGDRVTITCKASQSVNNDVAWYQQKPGKAPRLLIYYASNRYTGVPSRFSGSGSGTDFTFTISSLQPEDIATYYCQQDYSSWTFGGGTKVEIKR | 0.325 | –
PR302334-24 (antibody, human IgG1, kappa, V domains shown) VH: EVQLVESGGGLVKPGGSLRLSCAASGFTFSTYAMSWVRQAPGKGLEWVASIRSGGTTYYPDSVKGRFTISRDNAKNSLYLQMNSLRAEDTAVYYCTRGIDWGQGTTVTVSS VL: DIVMTQSPDSLAVSLGERATINCKASQSVNNDVAWYQQKPGQPPRLLIYYASNRYTGVPDRFSGSGSGTDFTLTISSLQAEDLAVYFCQQDYSSWTFGGGTKVEIKR | 0.778 | mCrhr1 Luciferase Reporter Assay IC50 [2]: 1.82 nM
PR302334-6 (antibody, human IgG1, kappa, V domains shown) VH: EVKLVESGGGLVKPGGSLKLSCAASGFTFSTYAMSWVRQTPEKRLEWVASIRSGGTTYYPDSVKGRFTISRDNARNILYLQMSSLRSEDTAIYYCTRGIDWGQGTLVTVSA VL: DIQMTQSSLSASVSLGDRVTITCKASQSVNNDVAWYQQKPGKAPRLLIYYASNRYTGVPSRFSGSGSGTDFTFTISSLQPEDLATYFCQQDYSSWTFGGGTKVEIKR | 0.404 | –
PR302334-9 (antibody, human IgG1, kappa, V domains shown) VH: EVQLVESGGGLVQPGGSLRLSCAASGFTFSTYAMSWVRQAPGKGLEWVASIRSGGTTYYPDSVKGRFTISRDNSKNTLYLQMNSLRAEDTAVYYCTRGIDWGQGTTVTVSS VL: DIVMTQSPDSLAVSLGERATINCKASQSVNNDVAWYQQKPGQPPRLLIYYASNRYTGVPDRFSGSGSGTDFTLTISSLQAEDVAVYYCQQDYSSWTFGGGTKVEIKR | 1.42 | –
PR302334-26 (antibody, human IgG1, kappa, V domains shown) VH: EVQLVESGGGLVQPGGSLRLSCAASGFTFSTYAMSWVRQAPGKGLEWVASIRSGGTTYYPDSVKGRFTISRDNSKNSLYLQMNSLRAEDTAVYYCTRGIDWGQGTTVTVSS VL: DIVMTQSPDSLAVSLGERATINCKASQSVNNDVAWYQQKPGQPPRLLIYYASNRYTGVPDRFSGSGSGTDFTLTISSLQAEDLAVYFCQQDYSSWTFGGGTKVEIKR | 1.1 | mCrhr1 Luciferase Reporter Assay IC50 [2]: 1.34 nM
PR302334-10 (antibody, human IgG1, kappa, V domains shown) VH: EVQLVESGGGLVQPGGSLRLSCAASGFTFSTYAMSWVRQAPGKGLEWVASIRSGGTTYYPDSVKGRFTISRDNSKNTLYLQMNSLRAEDTAVYYCTRGIDWGQGTTVTVSS VL: DIVMTQSPDSLAVSLGERATINCKASQSVNNDVAWYQQKPGQPPRLLIYYASNRYTGVPDRFSGSGSGTDFTLTISSLQAEDLAVYFCQQDYSSWTFGGGTKVEIKR | 0.839 | mCrhr1 Luciferase Reporter Assay IC50 [2]: 2.66 nM
PR006669 (antibody, human IgG1, kappa, V domains shown) VH: EVQLVESGGGLVQPGGSLRLSCAASGFTFSDNWMSWVRQAPGKGLEWVANIKQDGSENYYVDSVKGRFTISRDNAKNSLYLQMNSLRAEDTAVYYCSRGLALWGWGQGTLVTVSS VL: DIVMTHSPLSLPVTPGDPASISCRSSQSLLHSTGYNYLDWYLQKPGQSPQLLIYLGSNRASGVPDRFSGSGSGTDFTLKFIRVEAEDVGVYYCMQALQTPYTFGQGTKLEIKR | – | hCRHR1 Reporter IC50 [3]: 7.38 nM

The next lines start with results.

hCRHR1 Luciferase Reporter Assay IC50 [2] [nM] | Binder | further results
0.996 | PR302334-7 (antibody, human IgG1, kappa, V domains shown) VH: EVQLVESGGGLVQPGGSLRLSCAASGFTFSTYAMSWVRQAPGKGLEWVASIRSGGTTYYPDSVKGRFTISRDNSKNTLYLQMNSLRAEDTAVYYCTRGIDWGQGTTVTVSS VL: EIVMTQSPATLSVSPGERATLSCKASQSVNNDVAWYQQKPGQAPRLLIYYASNRYTGIPARFSGSGSGTEFTLTISSLQSEDFAVYYCQQDYSSWTFGGGTKVEIKR | –
0.468 | PR302334-14 (antibody, human IgG1, kappa, V domains shown) VH: EVQLVESGGGLVQPGGSLRLSCAASGFTFSTYAMSWVRQAPGKGLEWVASIRSGGTTYYPDSVKGRFTISRDNSKNTLYLQMNSLRAEDTAVYYCTRGIDWGQGTTVTVSS VL: NIVMTQTPKFLLVSAGDRITITCKASQSVNNDVAWYQQKPGQSPKLLIYYASNRYTGVPDRFTGSGYGTDFTFTISTVQAEDLAVYFCQQDYSSWTFGGGTNLEIKR | –
1.7 | PR302334-25 (antibody, human IgG1, kappa, V domains shown) VH: EVQLVESGGGLVKPGGSLRLSCAASGFTFSTYAMSWVRQAPGKGLEWVASIRSGGTTYYPDSVKGRFTISRDNAKNSLYLQMNSLRAEDTAVYYCTRGIDWGQGTTVTVSS VL: DIQMTQSSLSASVSLGDRVTITCKASQSVNNDVAWYQQKPGKAPRLLIYYASNRYTGVPSRFSGSGSGTDFTFTISSLQPEDLATYFCQQDYSSWTFGGGTKVEIKR | –
0.92 | PR302334-22 (antibody, human IgG1, kappa, V domains shown) VH: EVQLVESGGGLVQPGGSLRLSCAASGFTFSTYAMSWVRQAPGKGLEWVSSIRSGGTTYYPDSVKGRFTISRDNSKNSLYLQMNSLRAEDTAVYYCARGIDWGQGTTVTVSS VL: EIVMTQSPATLSVSPGERATLSCKASQSVNNDVAWYQQKPGQAPRLLIYYASNRYTGIPARFSGSGSGTEFTLTISSLQSEDLAVYFCQQDYSSWTFGGGTKVEIKR | –
0.279 | PR302334-18 (antibody, human IgG1, kappa, V domains shown) VH: EVQLVESGGGLVQPGGSLRLSCAASGFTFSTYAMSWVRQAPGKGLEWVASIRSGGTTYYPDSVKGRFTISRDNSKNSLYLQMNSLRAEDTAVYYCTRGIDWGQGTTVTVSS VL: NIVMTQTPKFLLVSAGDRITITCKASQSVNNDVAWYQQKPGQSPKLLIYYASNRYTGVPDRFTGSGYGTDFTFTISTVQAEDLAVYFCQQDYSSWTFGGGTNLEIKR | –
0.553 | PR302334-4 (antibody, human IgG1, kappa, V domains shown) VH: EVKLVESGGGLVKPGGSLKLSCAASGFTFSTYAMSWVRQTPEKRLEWVASIRSGGTTYYPDSVKGRFTISRDNARNILYLQMSSLRSEDTAIYYCTRGIDWGQGTLVTVSA VL: DIVMTQSPDSLAVSLGERATINCKASQSVNNDVAWYQQKPGQPPRLLIYYASNRYTGVPDRFSGSGSGTDFTLTISSLQAEDLAVYFCQQDYSSWTFGGGTKVEIKR | –
